Test results reported in US20250064909A1 (MEDIMABBIO, published 2025).
Read-outs that look alike come from different tables or passages of the source.

Key:
[1] = target: T1, TIGIT on cells (human primary T cells, PBMC, NK cells; Promega TIGIT effector cells) (human, UniProt Q495A1 22-244); assay: cell-based or functional assay
T1 sequence: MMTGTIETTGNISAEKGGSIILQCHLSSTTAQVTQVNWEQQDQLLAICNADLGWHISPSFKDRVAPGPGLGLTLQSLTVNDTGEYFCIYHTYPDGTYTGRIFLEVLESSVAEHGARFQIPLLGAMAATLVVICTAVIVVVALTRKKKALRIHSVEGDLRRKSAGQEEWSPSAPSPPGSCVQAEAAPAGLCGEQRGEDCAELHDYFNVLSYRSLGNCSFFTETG

[2] = target: T1, TIGIT on cells (human primary T cells, …); assay: cell-based or functional assay; remark: listed apart in the source
[3] = target: T1, TIGIT on cells (human primary T cells, …); assay: cell-based or functional assay; remark: listed apart in the source
[4] = target: T2, recombinant human TIGIT (Acrobiosystems) (human, UniProt Q495A1 22-141); assay: SPR (Biacore T200), multi-cycle kinetics, purified IgG captured on anti-human IgG CM5 chip, TIGIT as analyte, 1:1 fit
T2 construct: Bought protein; also called hTIGIT; human TIGIT antigen
T2 sequence: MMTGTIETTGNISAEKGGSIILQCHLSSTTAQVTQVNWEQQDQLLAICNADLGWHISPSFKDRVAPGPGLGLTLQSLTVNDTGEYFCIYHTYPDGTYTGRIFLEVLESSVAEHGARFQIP

[5] = target: T3, recombinant human TIGIT (Sino Biological) (human, UniProt Q495A1 22-138); assay: SPR single cycle kinetics; KD divided by KD of the VH0/Vκ0 chimeric antibody;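 note: biacore T200 SPR at 25 °C, IgG captured on anti-human chip, TIGIT analyte in four rising concentrations, 210 s association each, 900 s dissociation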
T3 construct: Bought protein; NP_776160.2; also called human TIGIT antigen; hTIGIT
T3 sequence: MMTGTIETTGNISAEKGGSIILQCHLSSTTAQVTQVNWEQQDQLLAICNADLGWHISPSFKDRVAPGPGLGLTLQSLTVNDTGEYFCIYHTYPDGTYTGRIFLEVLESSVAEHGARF

[6] = target: T1, TIGIT on cells (human primary T cells, …); assay: cell-based or functional assay; remark: listed apart in the source
[7] = target: T3, recombinant human TIGIT (Sino …); assay: SPR (Biacore T200), single cycle kinetics, IgG from supernatant captured on anti-human chip, TIGIT as analyte, 1:1 fit;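 note: measured at 25 °C in HBS-P+ with 1% BSA, four ascending TIGIT concentrations, 210 s association per step, one final 900 s dissociation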

EC50 of the mixture with pembrolizumab (both antibodies at the same concentration), NFAT reporter luminescence (PD-1+TIGIT+ effector cells + PD-L1+CD155 aAPC/CHO-K1 cells) [1]: 0.399 µg/mL
EC50, NFAT reporter luminescence (TIGIT effector cells + CD155 aAPC/CHO-K1 cells; blocked ligand PVR/CD155) [2]: 0.521 µg/mL
EC50 of the mixture with nivolumab (both antibodies at the same concentration), NFAT reporter luminescence (PD-1+TIGIT+ effector cells + PD-L1+CD155 aAPC/CHO-K1 cells) [3]: 0.594 µg/mL
EC50 of the mixture with pembrolizumab (both antibodies at the same concentration), NFAT reporter luminescence (PD-1+TIGIT+ effector cells + PD-L1+CD155 aAPC/CHO-K1 cells) [3]: 0.38 µg/mL
Kd [4]: 0.0867 nM
koff [4]: 0.000177 s⁻¹
kon [4]: 2.04e+06 M⁻¹ s⁻¹
Relative KD [5]: 1.34
EC50 of the mixture with nivolumab (both antibodies at the same concentration), NFAT reporter luminescence (PD-1+TIGIT+ effector cells + PD-L1+CD155 aAPC/CHO-K1 cells) [6]: 0.581 µg/mL
Kd [7]: 0.871 nM
koff [7]: 0.00161 s⁻¹
kon [7]: 1.85e+06 M⁻¹ s⁻¹
B1: anti-TIGIT 7A6 VH3/Vk5 humanized antibody (human IgG1, kappa) (antibody, V domains shown)
VH: QVQLQESGPGLVKPSQTLSLTCTVTGYSITSDYAWNWIRQPPGKGLEWMGYISYSGSARYNPSLKSRVTISRDTSKNQFSLKLSSVTAEDTATYYCARKGYPAYFAYWGQGTLVTVSS
VL: DIQMTQSPSSLSASVGDRVSITCKASQDVSTAVAWYQQKPGQAPRLLIYSASYRYTGVPDRFSGSGSGTDFTLTISSLQPEDFATYYCQHHYSTPYTFGQGTKLEIKR
notes: also called VH3Vκ5; 7A6 VH3/Vk5-IgG1
